Test results published in article PMC8496693.

Assays:
mChe-INPP5E [1] = biological target: mChe-INPP5E (UniProt Q9NRR6); assay: VIP assay (fluorescence intensity of mChe-INPP5E on GST-anti-GFP Nb beads); settings: lysates of HEK293T cells coexpressing both constructs; three independent experiments; parent: 100; read off a plot
mChe-INPP5E [2] = biological target: mChe-INPP5E (UniProt Q9NRR6); assay: immunoblotting of anti-GFP Nb precipitates (band intensity of mChe-INPP5E); settings: lysates of HEK293T cells coexpressing both constructs; three independent experiments; parent: 100; read off a plot

Sequence of mChe-INPP5E (Q9NRR6 whole entry): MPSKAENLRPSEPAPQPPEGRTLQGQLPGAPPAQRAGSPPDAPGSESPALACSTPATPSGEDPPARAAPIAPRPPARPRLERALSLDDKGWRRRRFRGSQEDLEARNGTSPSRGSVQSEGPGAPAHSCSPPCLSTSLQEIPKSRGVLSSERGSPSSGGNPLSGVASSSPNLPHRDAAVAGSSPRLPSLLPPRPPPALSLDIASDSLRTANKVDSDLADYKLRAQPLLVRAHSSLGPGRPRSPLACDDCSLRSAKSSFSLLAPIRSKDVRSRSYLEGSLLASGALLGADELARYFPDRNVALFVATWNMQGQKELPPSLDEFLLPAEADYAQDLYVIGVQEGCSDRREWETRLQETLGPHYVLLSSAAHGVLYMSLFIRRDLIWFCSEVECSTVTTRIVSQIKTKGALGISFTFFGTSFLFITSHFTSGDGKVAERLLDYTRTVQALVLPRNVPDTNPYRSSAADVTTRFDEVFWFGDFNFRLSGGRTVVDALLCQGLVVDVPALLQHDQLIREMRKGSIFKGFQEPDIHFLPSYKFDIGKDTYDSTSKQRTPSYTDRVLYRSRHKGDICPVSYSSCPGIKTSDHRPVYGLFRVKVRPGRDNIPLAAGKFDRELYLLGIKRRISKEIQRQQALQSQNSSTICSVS
Sequence of ARL13B(WT)-EGFP, Q3SXY8 AAEA (RVEP mutated to AAEA) (Q3SXY8 other isoform, or with tags, fused parts or gaps AAEA (RVEP mutated to AAEA)): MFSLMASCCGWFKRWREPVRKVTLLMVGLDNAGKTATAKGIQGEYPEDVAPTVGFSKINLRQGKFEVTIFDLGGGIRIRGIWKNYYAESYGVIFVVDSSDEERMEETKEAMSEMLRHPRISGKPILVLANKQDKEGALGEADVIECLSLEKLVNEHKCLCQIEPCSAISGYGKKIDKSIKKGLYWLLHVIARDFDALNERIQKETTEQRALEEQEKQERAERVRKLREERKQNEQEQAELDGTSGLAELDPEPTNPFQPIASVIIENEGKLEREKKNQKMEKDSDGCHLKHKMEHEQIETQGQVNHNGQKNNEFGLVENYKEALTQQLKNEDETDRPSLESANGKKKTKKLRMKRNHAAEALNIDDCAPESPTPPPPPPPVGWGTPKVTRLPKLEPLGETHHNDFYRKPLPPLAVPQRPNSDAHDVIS

With “ARL13B(WT)-EGFP, Q3SXY8 AAEA (RVEP mutated to AAEA)” the percent of parent (% of ARL13B(WT)-EGFP) (mChe-INPP5E [1]) was 100 and the percent of parent (% of ARL13B(WT)-EGFP) (mChe-INPP5E [2]) was 110.
